Where a chain is given by its changes, count along the chain named. Names and notes keep the numbering of the source.
T1: FtsZ of S. coelicolor, C-terminal His-tag fusion (Streptomyces coelicolor, UniProt P45500 1-399)
T1 sequence (looked up): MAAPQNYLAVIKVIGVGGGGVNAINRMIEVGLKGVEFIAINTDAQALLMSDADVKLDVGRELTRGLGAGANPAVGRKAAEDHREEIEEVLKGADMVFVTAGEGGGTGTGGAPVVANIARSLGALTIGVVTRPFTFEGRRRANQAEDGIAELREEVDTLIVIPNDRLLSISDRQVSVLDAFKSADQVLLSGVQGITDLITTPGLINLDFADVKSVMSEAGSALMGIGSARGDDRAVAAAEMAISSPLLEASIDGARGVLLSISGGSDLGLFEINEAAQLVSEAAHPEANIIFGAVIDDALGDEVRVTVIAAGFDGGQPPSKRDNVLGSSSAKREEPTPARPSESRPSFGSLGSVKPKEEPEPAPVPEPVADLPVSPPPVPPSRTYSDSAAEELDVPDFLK

B1: SsgB of S. coelicolor, wild type, His6-tagged (natural protein, Streptomyces coelicolor, UniProt Q9L268 1-137, looked up)
chain: MNTTVSCELHLRLVVSSESSLPVPAGLRYDTADPYAVHATFHTGAEETVEWVFARDLLAEGLHRPTGTGDVRVWPSRSHGQGVVCIALSSPEGEALLEAPARALESFLKRTDAAVPPGTEHRHFDLDQELSHILAES
B2: SsgB E120G of S. coelicolor, His6-tagged (natural protein, Streptomyces coelicolor, UniProt Q9L268 1-137, looked up)
chain: B1 chain with E120G
B3: SsgB E120A of S. coelicolor, His6-tagged (natural protein, Streptomyces coelicolor, UniProt Q9L268 1-137, looked up)
chain: B1 chain with E120A

What was measured:
[1] = target: SsgB of S. coelicolor, wild type, His6-tagged (Streptomyces coelicolor) (UniProt Q9L268); assay: crystal structure
[2] = target: SsgB of S. coelicolor, wild type, His6-tagged (Streptomyces coelicolor) (UniProt Q9L268); assay: SEC
[3] = target: T1, FtsZ of S. coelicolor, C-terminal …; assay: co-sedimentation

Row | Molecule | stoichiometry N [1] | stoichiometry N [2] | binding result [3]
1 | SsgB of S. coelicolor, wild type, His6-tagged (from UniProt Q9L268 1-137) (natural protein) | 3 | 3 | –
2 | B1 | – | – | binds
3 | B2 | – | – | binds
4 | B3 | – | – | binds
